Patent publication US20230241072A1, “ANTHRACYCLINE DERIVATIVES” (ALMAC DISCOVERY LIMITED, priority 2019, published 2023)
Where a chain is given by its changes, count along the chain named. Numbers in names are those of the source.

Tests used:
ROR1 = ROR1 (Homo sapiens, UniProt Q01973); test: SPR / BLI binding kinetics to immobilised ROR1-hFc; design: ROR1-hFc or ROR2-hFc fusion proteins (extracelluar domains) were immobilised; conditions: for hROR1 Ka / hROR1 Ka (M^−1s^−1): association rate; for Kd: read-out: hROR1 KD
Description: (§1) VNARs were genetically fused to engineered hIgG1 Fc domains via standard [G4S]3 that contained a cysteine substitution in the hIgG1 Fc sequence, S239C (EU numbering). The VNAR Fc fusion proteins were expressed as secreted protein in CHO K1 cells and purified from the media using MabSelect™ SuRe™ (Evitria, Switzerland). Purified proteins were analysed by SEC (AdvanceBio, Agilent), SDS PAGE and mass spectrometry to confirm sequence and protein integrity. Binding kinetics were determined using a Pioneer Surface Plasmon Resonance (SPR) instrument (SensiQ/Pall ForteBio), or the Biolayer Interferometry (BLI) Octet K2 system (ForteBio). ROR1-hFc or ROR2-hFc fusion proteins (extracelluar domains) were immobilised in sodium acetate pH5 buffer to COOH2 chips or AR2G sensors using amine coupling. VNARs and VNAR-Fc molecules were tested at various concentrations and the Ka (M^−1 s^−1), Kd (s^−1) and KD (nM) values were determined using QDat software (SensiQ/Pall ForteBio) or Octet Data Analysis High Throughput software (ForteBio) for Biolayer Interferometry. ROR1 2A2 mAb (Biolegend) and ROR2 mAb (R&D Systems) were included as controls for positive/negative binding to ROR1 and ROR2. 2V is a control VNAR sequence, derived from a naïve VNAR library, so is representative of this protein class but has no known target.
(§2) Binding kinetics for binding of the multimeric VNAR proteins to ROR1-hFc or ROR2-hFc fusion proteins (extracelluar domains) were determined using a Pioneer Surface Plasmon Resonance (SPR) instrument (SensiQ/Pall ForteBio) or the Biolayer Interferometry (BLI) Octet K2 system (ForteBio) as previously described.

human ROR2 = molecular target: T1, human ROR2 (Homo sapiens, UniProt Q01974); test: SPR / BLI binding to immobilised ROR2-hFc
T1 construct: ROR1-hFc or ROR2-hFc fusion proteins (extracelluar domains) were immobilised
Description: as §1, §2

697 = test: In vitro cell viability assay (Cell Titre Glo), VNAR drug conjugates: 697; type: cell-based, human
Description: (§3) In Vitro Cell Viability Assays for Cancer Cells Treated with Anti ROR1 VNAR Drug Conjugates
(§4) Cells were seeded into white, clear bottom 96 well plates (Costar) and incubated at 37° C., 5% CO2 for 24 hours. On the following day, dilution series were set up for each test agent at ×10 working stocks. The dose response ×10 stock was: 10000, 5000, 1000, 500, 100, 50, 10, 5, 1, 0.5 nM etc. 10 μL of the ×10 stock solutions were added to the cell plates (90 μl per well) using a multichannel pipette. […] 100d of vehicle control (PBS) was added to the control wells (columns 11 and 12). Plates were incubated at 37′C, 5% CO2 for 72-96 hours. Promega Cell litre Glo reagent was used as per the manufacturer's instructions to assess cell viability. Briefly, assay plates were removed from incubator and allowed to equilibrate to room temperature before adding […] of room temperature Cell litre Glo reagent to each 100 μl assay well. Plates were placed on a plate shaker for 2 minutes at 600 rpm. Plates were allowed to sit for a further 10 minutes at room temperature prior to measuring luminescence read-out using a Clariostar plate-reader (BMG). Data was analysed by calculating the average for untreated (vehicle only) control wells and determining the % of control for each treated well. % of control data was then plotted against Log [Treatment] concentration and the IC50 value derived using non-linear regression fitting in GraphPad Prism software.
(§5) The following cell lines were used: • Kasumi-2—human B cell leukaemia precursor; • PA-1—human ovarian cancer cell line; • PA-1 ROR1 ko—human ovarian cancer cell line with ROR1 knock-out; • 697—human B cell leukaemia precursor, and • MHH-ES1—human Ewing's sarcoma cell line.

PA-1 ROR1 ko = test: In vitro cell viability assay (Cell Titre Glo), VNAR drug conjugates: PA-1 ROR1 ko; type: cell-based, human; conditions: for IC50: Table 5, 96 h, PA-1 ROR1 ko
Description: as §3, §4, §5

PA-1 = test: In vitro cell viability assay (Cell Titre Glo), VNAR drug conjugates: PA-1; type: cell-based, human; conditions: for IC50: Table 5, 96 h
Description: as §3, §4, §5

Cathepsin B = Cathepsin B (Homo sapiens, UniProt P07858); test: Cathepsin B treatment of protein-PNU conjugates, payload release; type: in vitro ADME; conditions: after treatment with Cat B; protein 10 uM (2VhFc conjugate 5 uM)
Excerpt: Cathepsin B treatment of VNAR-hFc-vc-PAB-EDA-PNU conjugates and the corresponding conjugates of the multimeric proteins liberated free EDA-PNU159682 derivative in a quantitative fashion. Whereas, VNAR-hFc-va-EDA-PNU conjugates and the corresponding conjugates of the multimeric proteins were completely stable to Cathepsin B treatment.
Only the vc-PAB-EDA-PNU releases payload on treatment with CatB as expected for the conditions used in this in vitro assay. The release is quantitative—as the conjugates have a drug to antibody ratio of 2, then twice the concentration of payload released versus the concentration of conjugate is expected after CatB treatment. This expectation matches the data shown in Table 11 for vc-PAB-EDA-PNU conjugates.

Kasumi-2 = test: In vitro cell viability assay (Cell Titre Glo), VNAR drug conjugates: Kasumi-2; type: cell-based, human; conditions: for IC50: Table 5, 96 h
Description: as §3, §4, §5

[1] = Human plasma stability of protein-PNU conjugates (LC-MS of released payload); type: in vitro ADME; conditions: 37° C., up to 168 h, 4 or 2 uM PDC, LLOQ 0.1 or 0.156 uM
Description: Different conjugates were incubated at 37° C. for 168 h in human plasma at a final concentration of 4 μM or 2 μM of protein. Samples were analysed by LC-MS as a function of time up to and including 168 h and the amount of released PNU159682 and EDA-PNU159682 derivative was quantified by reference to calibration standards.

[2] = Mouse plasma stability of protein-PNU conjugates (LC-MS of released payload); type: in vitro ADME; conditions: 37° C., 4 μM protein
Description: Different P3A1-hFc-PNU conjugates were incubated at 37° C. in mouse plasma at a final concentration of 4 μM of protein. Samples were analysed by LC-MS as a function of time and the amount of released PNU159682 and EDA-PNU159682 derivative was quantified by reference to calibration standards.

MHH-ES1 = test: In vitro cell viability assay (Cell Titre Glo), VNAR drug conjugates: MHH-ES1; type: cell-based, human; conditions: for IC50: Table 5, 96 h
Description: as §3, §4, §5

[3] = Table 3, VNAR-Fc fusions, dissociation rate
[4] = Table 3b, VNAR-Fc fusions, dissociation rate
[5] = ratio to corresponding non-binding 2V-hFc conjugate

B1: hFc - P3A1: hIgG1 Fc - VNAR P3A1 fusion (protein)
chain: GGGGSGGGGSGGGGSTRVDQTPRTATKETGESLTINCVLTDTSYGLYSTSWFRKNPGTTDWERMSIGGRYVESVNKGAKSFSLRIKDLTVADSATYYCKAREARHPWLRQWYDGAGTVLTVN
modifications: left off: a dimerising Fc or GST
notes: hIgG1 Fc - VNAR P3A1 fusion
hROR1 Ka (ROR1; Table 3, VNAR-Fc fusions): 2.38e+06 M⁻¹ s⁻¹ | hROR1 Kd (ROR1; [3]): 0.000776 s⁻¹ | Kd (ROR1; Table 3, VNAR-Fc fusions): 0.35 nM | hROR2 (human ROR2; Table 3, VNAR-Fc fusions): No binding

B2: B1V15 hFc: humanised VNAR B1V15 (SEQ ID NO: 59) - hFc fusion (protein)
chain: ASVTQSPRSASKETGESLTITCRVTGANYGLAATYWYRKNPGSSNQERISISGRYSESVNKRTMSFSLRISSLTVEDSATYYCKAYPWGAGAPWLVQWYDGQGTKLEVKGGGGSGGGGSGGGGS
modifications: left off: a dimerising Fc or GST
hROR1 Ka (ROR1; Table 3b, VNAR-Fc fusions): 179000 M⁻¹ s⁻¹ | hROR1 Kd (ROR1; [4]): 0.00013 s⁻¹ | hROR2 (human ROR2; Table 3b, VNAR-Fc fusions): No binding

B3: P3A1hFc-PEG4-vc-PAB-EDA-PNU (conjugate)
chain: TRVDQTPRTATKETGESLTINCVLTDTSYGLYSTSWFRKNPGTTDWERMSIGGRYVESVNKGAKSFSLRIKDLTVADSATYYCKAREARHPWLRQWYDGAGTVLTVNGGGGSGGGGSGGGGS
modifications: left off: a dimerising Fc or GST
IC50 (697; Table 5, 96 h): 52 nM | ROR1 targeting/2V non-targeting window 697 697; [5]: 1.2 | IC50 (PA-1 ROR1 ko): 11 nM | ROR1 targeting/2V non-targeting window PA-1 31-J-06 (PA-1 ROR1 ko; ratio to corresponding non-binding 2V-hFc conjugate, PA-1 31-J-06 (ROR1 −/−; matches PA-1 ROR1 ko of Table 5)): 1.3 | IC50 (PA-1): 0.1 nM | ROR1 targeting/2V non-targeting window PA-1 (PA-1; [5]): 73 | Average Conc EDA Released (Cathepsin B): 20.1 µM | IC50 (Kasumi-2): 3.2 nM | ROR1 targeting/2V non-targeting window Kasumi-2 (Kasumi-2; [5]): 18 | Observed EDA payload release [1]: EDA-PNU not detected above LLOQ | Concentration (nM) of free PNU payload detected by LC-MS, 4 h ([2]; 4 h): 21 nM | Concentration (nM) of free PNU payload detected by LC-MS, 24 h ([2]; 24 h): 84 nM | Concentration (nM) of free PNU payload detected by LC-MS, 48 h ([2]; 48 h): 108 nM | Concentration (nM) of free PNU payload detected by LC-MS, 72 h ([2]; 72 h): 107 nM | Concentration (nM) of free PNU payload detected by LC-MS, 96 h ([2]; 96 h): 101 nM | Concentration (nM) of free PNU payload detected by LC-MS, 120 h ([2]; 120 h): 114 nM | IC50 (MHH-ES1): 24 nM | ROR1 targeting/2V non-targeting window MHH-ES1 (MHH-ES1; [5]): 1.1

B4: P3A1hFc(442)-PEG4-va-EDA-PNU (conjugate)
chain: B3 chain
modifications: left off: a dimerising Fc or GST
IC50 (PA-1 ROR1 ko): 18.3 nM | IC50 (PA-1): 0.025 nM | IC50 (Kasumi-2): 9.1 nM | Observed EDA payload release [1]: No EDA-PNU detected at any time points | IC50 (MHH-ES1): 37.5 nM

B5: 2V hFc: non-binding control VNAR 2V fused to hIgG1 Fc (protein)
chain: B3 chain with R86Q, E87S, A88L, R89A, H90I, P91S, W92T, L93R, R94S, Q95Y
modifications: left off: a dimerising Fc or GST
hROR1 KD (nM) (ROR1; Table 3, VNAR-Fc fusions): No binding | hROR1 Ka (M^−1s^−1) (ROR1; Table 3, VNAR-Fc fusions): No binding | hROR1 Kd (s^−1) (ROR1; [3]): No binding | hROR2 (human ROR2; Table 3, VNAR-Fc fusions): No binding

B6: P3A1 hFc(442): VNAR P3A1 fused to engineered hIgG1 Fc with cysteine substitution S442C (EU numbering) (protein)
chain: B3 chain
modifications: left off: a dimerising Fc or GST
hROR1 Ka (M^−1s^−1) (ROR1; Table 3b, VNAR-Fc fusions): 2.70+05 M^−1s^−1 | hROR1 Kd (ROR1; [4]): 0.0002 s⁻¹ | hROR2 (human ROR2; Table 3b, VNAR-Fc fusions): No binding

B7: P3A1 hFc: ROR1-specific VNAR P3A1 fused to engineered hIgG1 Fc domain (S239C) (protein)
chain: B3 chain
modifications: left off: a dimerising Fc or GST
hROR1 Ka (ROR1; Table 3, VNAR-Fc fusions): 1.07e+07 M⁻¹ s⁻¹ | hROR1 Kd (ROR1; [3]): 0.000564 s⁻¹ | Kd (ROR1; Table 3, VNAR-Fc fusions): 0.084 nM | hROR2 (human ROR2; Table 3, VNAR-Fc fusions): No binding
